The series deals with the molecule itself. As to the kind of experiment: crystal structure.

B1: CMP-sialic acid transporter homologue from Zea mays (CSTZM), wildtype-like crystallization construct (natural protein)
chain: MQWYLVAALLTILTSSQGILTTLSQSNGKYNYDYATIPFLAELFKLSVSGFFLWKECRTSPSVRMTKEWRSVRLYVVPSVIYLIHNNVQFATLTYVDPSTYQIMGNLKIVTTGILFRLVLKRKLSNIQWMAIVLLAVGTTTSQVKGCGDSPCDSLFSAPLEGYLLGILSACLSALAGVYTEYLMKKNNDSLYWQNVQLYTFGVIFNMGWLIYGDFKAGFELGPWWQRLFNGYSITTWMVVFNLGSTGLLVSWLMKYSDNIVKVYSTSMAMLLTMVLSIYLFSVKATIQLFLGIIICIISLQMYFMPVHMLIELPQTLPVTSKENLYFQ
With B1, the binding result is on record as “binds”.

For the origin of these results see article doi:10.1101/580449 (bioRxiv, 2019).
